Results as given in the supplement of paper PMC10567573.
± gives the standard deviation.

Assay: protein stability index of a GFP-peptide fusion (GPS, HEK-293T) (PSI 1-6); higher = more stable
Conditions: c terminus: a fixed tail appended
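Also: 24-mer peptide tiles fused after GFP, lentivirally expressed, FACS-sorted into six equal bins by GFP/DsRed ratio, decoded by Illumina sequencing, PSI is the read-weighted mean bin number.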

Row | Sequence | protein stability index (treatment: DMSO) | protein stability index (treatment: MLN4924 1 uM, 8 h)
1 | DNPANRSLVLPWSFPLEWAPQNLT [TOR1AIP2] | 2.87 ± 0.23 | 2.79 ± 0.17
2 | HLTRHQRTHTGEKPYKCTLCGENF [ZNF263] | 3.36 ± 0.53 | 3.45 ± 0.51
3 | QNVHFHRSGSPTVPIKPPCIPNGK [CAMK2D] | 3.85 ± 0.26 | 4.05 ± 0.2
4 | YHSQDELGGFSHWGRLTSYSGGGY [PKD2L1] | 2.66 ± 0.6 | 2.52 ± 0.34
5 | GILERYWLSSRAAAIKVNDSVPFH [MYORG] | 2.02 ± 0.42 | 1.78 ± 0.28
6 | RRATSGGKWPQVLFFPEGTCSNKK [LPCAT4] | 3.72 ± 0.31 | 3.78 ± 0.13
7 | DYSPYYKTIEELRDKILTATIENN [KRT13] | 3.17 ± 0.15 | 3.11 ± 0.16
8 | PWLRQDPMPLAPTRSHLWEAAQVV [TRIB3] | 2.5 ± 0.18 | 2.27 ± 0.29
9 | ITHSTVGSKGEKDLGASSLHVNGE [EHMT1] | 4.9 ± 0.2 | 5.03 ± 0.24
10 | DCILRDTSEDLRLQCDAVNLAFGR [TEKT4] | 3.4 ± 0.13 | 3.48 ± 0.19
11 | MCVAQVLTAHLLPPRQALGSLCSP [YPEL3] | 2.8 ± 0.93 | 2.8 ± 0.35
12 | LIGLISDRLRRNWPPSFLSEFRAL [SPNS1] | 2.19 ± 0.35 | 2.1 ± 0.2
13 | QQIHVVSQFKILVSLLENNIYVHD [VPS39] | 3.08 ± 0.059 | 3.23 ± 0.28
14 | DGQYLGVAFRGLKGKKLYPVVSAV [SPSB4] | 2.08 ± 0.38 | 2.51 ± 0.49
15 | SESQLASTESDKPTTGRVYESDSS [C18orf25] | 5.5 ± 0.15 | 5.44 ± 0.26
16 | MYSSSCETTRNTTGIEESTDGMIL [LARP4] | 4.33 ± 0.24 | 4.48 ± 0.23
17 | DREGPSSSKLVTKKAPQPAKPRLA [HDAC6] | 5.09 ± 0.3 | 5.06 ± 0.35
18 | GSSRPCLDFLQEVTRQPRNLQDLC [ASB7] | 3.9 ± 0.31 | 3.97 ± 0.23
19 | DVESGQLLQSFHGHGADVLCLDLA [GNB5] | 3.69 ± 0.28 | 3.81 ± 0.31
20 | VGQQVHNLLLTYLIVTSLLLLPGL [ARL6IP1] | 3.27 ± 0.26 | 3.46 ± 0.57
21 | LKLKNKLLQADREHLPVKPDTMEK [DENND6A] | 4.35 ± 0.34 | 4.33 ± 0.22
22 | HLDIWKSAAWMKERTSPGAIHYCA [SPDEF] | 2.21 ± 0.39 | 2.4 ± 0.32
23 | PLVKKHCDDSFTPQEKLWQQLRRG [CPOX] | 3.49 ± 0.21 | 3.57 ± 0.2

Row | Sequence | protein stability index (treatment: DMSO) | protein stability index (treatment: MLN4924 1 uM, 8 h)
24 | SWTGDGWEFKLSDPDEVARRWGKR [ETS1] | 3.73 ± 0.062 | 3.88 ± 0.25
25 | LTEHKRIHTGKKPHVCSLCGKAFY [ZNF649] | 2.83 ± 0.38 | 3.32 ± 0.56
26 | EPSQMLKHAVVNLINYQDDAELAT [CTNNB1] | 4.16 ± 0.32 | 4.25 ± 0.26
27 | KAYDHQTQELVAIKIIKNKKAFLN [DYRK1B] | 2.37 ± 0.22 | 2.62 ± 0.25
28 | LPHQSHRQRSSLAKINIVYQELNY [SCNN1D] | 2.54 ± 0.23 | 2.54 ± 0.3
29 | MAGSDTAPFLSQADDPDDGPVPGT [SPNS1] | 5.57 ± 0.17 | 5.34 ± 0.23
30 | EGQHPAQLRSDVCTPGGTTIYGLH [PYCR3] | 3.8 ± 0.35 | 3.92 ± 0.39
31 | SGITIPKPPKPPDKPLMPYMRYSR [SMARCE1] | 2.68 ± 0.25 | 3.32 ± 0.23
32 | FRRGPAPQDQAGPGGAPRVASRNL [CLPTM1] | 4.63 ± 0.17 | 4.25 ± 0.3
33 | KIQASGETPNSLNTTVIPNGSMAM [LYSMD4] | 4.22 ± 0.097 | 4.09 ± 0.2
34 | TPVVLVGNKSDLKQLRQVTKEEGL [RIT1] | 4.54 ± 0.15 | 4.59 ± 0.32
35 | SDKYPIQDTELPKAEECDTITLNC [EDARADD] | 5.25 ± 0.41 | 5.26 ± 0.21
36 | PESQFPEFSTSLFSGSLEPVACGS [SRPK2] | 4.21 ± 0.26 | 4.29 ± 0.064
37 | GPYDPNSVRISFAKGWGPCYSRQF [SMAD6] | 2.19 ± 0.17 | 2.25 ± 0.18
38 | NDTDFRVYLLGNPVVWWLNLLSIA [POMT2] | 2.89 ± 0.48 | 3.11 ± 0.47
39 | FSVTGGTEEKSSLLMSCLACDTWA [RPAIN] | 2.27 ± 0.26 | 2.27 ± 0.25
40 | PRESTDFSSSSQEAFAASAVGSGE [ZBTB22] | 5.22 ± 0.26 | 5.31 ± 0.27
41 | VIRGLNTIPLFVQLLYSPIENIQR [CTNNB1] | 2.76 ± 0.3 | 2.68 ± 0.4
42 | SSGEDKENDGFVFKMPWKPTHPSS [CDC25B] | 3.92 ± 0.22 | 4.16 ± 0.25
43 | MTEWKHQRITKQLEKWMQKNVEEN [GLT8D2] | 3.85 ± 0.21 | 3.97 ± 0.41
44 | MGWKKACDELELHQRFLREGRFWK [ZMYND11] | 2.52 ± 0.19 | 2.99 ± 0.18
45 | LALHPEAPGLYNHLPWQYHAGQGG [CCDC3] | 3.2 ± 0.5 | 2.63 ± 0.28
46 | SRVKGSAPEIDPSSDGSNFGWETK [KMT2E] | 4.83 ± 0.4 | 4.83 ± 0.15

Row | Sequence | protein stability index (treatment: DMSO) | protein stability index (treatment: MLN4924 1 uM, 8 h)
47 | SSALSQSGGGSTSAAGIEARSRAL [SPACA3] | 4.76 ± 0.41 | 4.82 ± 0.064
48 | GGIVTDTPASNHLPGWEDIESKIP [SLC19A2] | 4.77 ± 0.17 | 4.87 ± 0.12
49 | YRVWKKMLASVESVPFSFDPNTAA [TRIM35] | 2.06 ± 0.28 | 2.3 ± 0.14
50 | SASEPQPASQAASSSSASADLLAG [SNAP91] | 5.51 ± 0.17 | 5.41 ± 0.19
51 | LVKKYGTKQWTLIAKHLKGRLGKQ [MYBL2] | 2.43 ± 0.89 | 2.45 ± 0.53
52 | YKEKFGITDLPRIDVSKREPPPVK [EFHC1] | 3.67 ± 0.38 | 4.04 ± 0.23
53 | HKHVHFSSSFTSIASEWFLIANRS [SLC22A15] | 2.43 ± 0.57 | 2.04 ± 0.33
54 | QMSGEPLDKLNFEAINFCRGLGSQ [ACSBG2] | 3.51 ± 0.49 | 2.89 ± 0.39
55 | HNDRVQALSYAQHTRQLISCGGDG [WDFY2] | 2.77 ± 0.28 | 2.53 ± 0.17
56 | DPKKLLTQHFVQENYLEYRQVPGS [MAGEA3] | 3.62 ± 0.22 | 3.76 ± 0.13
57 | MQLPPALCARLAAGPGAAEPLPVE [ZNF511] | 3.97 ± 0.18 | 3.86 ± 0.11
58 | KYDPTIEDSYRKQVEVDAQQCMLE [RAP1B] | 4.55 ± 0.12 | 4.66 ± 0.11
59 | QASAAPAAPLPERNSLSAIFNNVM [SLC29A1] | 3.55 ± 0.094 | 3.5 ± 0.14
60 | SASEILYSAPPGDPLSTNYSLAPN [NFE2L1] | 4.16 ± 0.29 | 4.12 ± 0.28
61 | KVAKLLGYSTHADFVLEMNTAKST [NLN] | 1.9 ± 0.33 | 2.35 ± 0.24
62 | SEMLDITMKESLTTREIRRQEAIY [NET1] | 3.75 ± 0.18 | 3.91 ± 0.33
63 | SLQSCMHFQPNSPASDLEAALEAA [NANOGP8] | 4.6 ± 0.22 | 4.63 ± 0.27
64 | SFSSLEPDNEQLMEEVISPRQVSY [IQUB] | 4.29 ± 0.2 | 4.56 ± 0.22
65 | PNFVKDLEEDLYELFKKDPGFDRG [PI4K2A] | 3.79 ± 0.081 | 3.72 ± 0.32
66 | LYPSLGAGYRLGPAQPGADSSFPP [TBX6] | 3.38 ± 0.039 | 3.39 ± 0.24
67 | MTEKQQEEAEWESINVLLMMHGLK [CEP70] | 2.62 ± 0.27 | 2.73 ± 0.22
68 | IGPNVLMVHKRSHTGERPFQCNQC [IKZF1] | 2.93 ± 0.26 | 3.17 ± 0.43
69 | TCSNKKALLKFKPGAFIAGVPVQP [LPCAT4] | 2.85 ± 0.4 | 3.03 ± 0.19

Row | Sequence | protein stability index (treatment: DMSO) | protein stability index (treatment: MLN4924 1 uM, 8 h)
70 | TASDSESRAESAPLPVSADDTPEV [CDS2] | 5.48 ± 0.45 | 5.36 ± 0.38
71 | PDPPVNFLRQKVLSLPLPDPLKYY [PCMTD2] | 2.85 ± 0.13 | 2.93 ± 0.079
72 | HTFNAHAATDITGFGILGHSQNLA [SEPHS2] | 3 ± 0.35 | 3.04 ± 0.24
73 | QVHQGIKGMVLDENYNNLANAVIS [CPN1] | 2.52 ± 0.23 | 2.62 ± 0.34
74 | PPQPGCPAFIIVKLSPLRDRLVVT [ZSWIM9] | 2.93 ± 1 | 2.99 ± 0.94
75 | PAGAEYCSSARHPAWGHCFYRLYQ [SCNN1D] | 2.08 ± 0.38 | 2.68 ± 0.35
76 | PRRKKLKSTSKYIYQTLFLNGENS [GMCL1] | 2.69 ± 0.17 | 2.79 ± 0.16
77 | MDATNAFKKTAYELLDEKLLARGT [FEM1A] | 3.8 ± 0.23 | 3.85 ± 0.25
78 | AEMSRVSIRILDELVLPFQELQID [HNF4A] | 2.67 ± 0.35 | 2.74 ± 0.23
79 | VEAVKNELRRQAPPPPPPSRGGPP [WASL] | 4.91 ± 0.29 | 4.92 ± 0.078
80 | KLKKGICEALEDSDGRQDSPAGEL [MATN2] | 5.3 ± 0.28 | 5.31 ± 0.15
81 | LTVRKSQSEPSEQDGVLDLSTKKS [LCOR] | 5.15 ± 0.25 | 5.22 ± 0.24
82 | ADAFHHQVHDDDLLSSSEEECKDR [EMD] | 5.66 ± 0.14 | 5.66 ± 0.17
83 | AGDRFLEALGFSWHDTCFVCAICQ [PDLIM7] | 2.32 ± 0.4 | 2.52 ± 0.28
84 | PRLSQLSVTDVTTSSLRLNWEAPP [TNXB] | 3.5 ± 0.4 | 
85 | LKKPIKGKQAPRKKAQGKTQQNRK [KMT5A] | 4.29 ± 0.2 | 4.45 ± 0.23
86 | YKQLGSAGEGLPQVYYFGPCGKYN [CSNK1G1] | 3.05 ± 0.65 | 2.16 ± 0.2
87 | KKIFAQLDSIIDDRVILSSSTSCL [CRYL1] | 2.35 ± 0.15 | 2.58 ± 0.3
88 | NSCINPIALYFVSKKFKNCFQSCL [EDNRA] | 3.27 ± 0.34 | 
89 | GILTLAMIAFFFIIIYLGPMVLMI [CDS2] | 2.7 ± 0.57 | 2.48 ± 0.35
90 | GEINVEMDAAPGVDLSRILNEMRD [KRT17] | 4.03 ± 0.22 | 3.99 ± 0.14
